Results reported in patent US20190375855A1 (Memorial Sloan Kettering, published 2019).

Molecular target: T1, Trp1 as expressed by B16 melanoma cells (UniProt P07147 25-537, limits assumed)
T1 construct: whole, on cells; also called Tyrosinase-related protein 1; TYRP1
Assay: flow cytometry on permeabilized B16 cells, detection with anti-mouse IgG PE
Description: FIG. 2 depicts Trp1 expression profile. B16, B78H1, and B78H1 engineered to express Trp1 on the surface were stained with TA99, TA99 single chain variable region fused to an Fc domain, or isotype control. The cell lines were washed and stained with anti-mouse IgG PE and further analyzed by flow cytometry. B16 was permeabilized before staining since the level of Trp1 expression is suboptimal in the surface in vitro.
An scFv that specifically binds to a mouse Trp1 polypeptide and a human Trp1 polypeptide was generated from a murine monoclonal antibody TA99 that was generated from the TA99 antibody disclosed in International Patent Publication No. WO96/40249. This scFv was cloned into an eGFP cassette. The binding specificity of this scFv to the Trp1 polypeptide was evaluated using a soluble protein comprising this scFv and a Fc domain fused to the scFv. The binding specificity of the scFv-Fc fusion protein to B16 melanoma cells (expressing Trp1), a B16 variant B78H1 (not expressing Trp1), and B78H1-Trp1 (B78H1 engineered to express TRP1 on the surface) was evaluated by flow cytometry. […]

binding result: binds
B1: soluble protein comprising the TA99-derived scFv and a Fc domain fused to the scFv (Fc fusion, not shown: a dimerising Fc or GST)
scFv: EVQLQQSGAELVRPGALVKLSCKTSGFNIKDYFLHWVRQRPDQGLEWIGWINPDNGNTVYDPKFQGTASLTADTSSNTVYLQLSGLTSEDTAVYFCTRRDYTYEKAALDYWGQGASVIVSSGGGGSGGGGSGGGGSAFQMSQSPASLSASVGETVTITCRASGNIYNYLAWYQQKQGKSPHLLVYDAKTLADGVPSRFSGSGSGTQYSLKISSLQTEDSGNYYCQHFWSLPFTFGSGTKLEIKAAA
notes: also called scFv-Fc fusion protein; TA99 single chain variable region fused to an Fc domain
